# According to patent publication US20220127309A1:
# Experiments:
# [1] = biological target: Ectodomain of RSV F (1-513) - DScav mutations - Foldon SSM (Respiratory Syncytial virus); experiment: ELISA, printed as affinity (FIG. 1C)
# [2] = biological target: Ectodomain of RSV F (1-520) - DScav mutations - HIV GP160-based SSM (Respiratory Syncytial virus); experiment: ELISA, printed as affinity (FIG. 1C)
# [3] = biological target: Ectodomain of RSV F (1-513) - DScav mutations - Foldon SSM (Respiratory Syncytial virus); experiment: ELISA, printed as affinity (FIG. 1B)
# [4] = biological target: Ectodomain of RSV F (1-520) - DScav mutations - HIV GP160-based SSM (Respiratory Syncytial virus); experiment: ELISA, printed as affinity (FIG. 1B)
# [5] = biological target: Ectodomain of RSV F (1-520) - HIV GP160-based SSM (Respiratory Syncytial virus); experiment: ELISA, printed as affinity (FIG. 1A)
Substance,Kd [1],Kd [2],Kd [3],Kd [4],Kd [5]
"Broadly cross-neutralizing, prefusion specific monoclonal antibody MPE8",10.8 nM,7.6 nM,–,–,–
Prefusion specific monoclonal antibody D25,–,–,1.3 nM,1.2 nM,23.4 nM
